Tests used:
Experiment in all cases: ITC
[1] = target: E-cadherin CTD site-3 to A (mouse, UniProt P09803 734-884, Y861A | Y863A | W867A)
[2] = target: E-cadherin CTD site-1, 3 to A (mouse, UniProt P09803 734-884, Y755A | Y756A | Y757A | Y861A | Y863A | W867A)
[3] = target: E-cadherin CTD site-1, 2 to A (mouse, UniProt P09803 734-884, Y755A | Y756A | Y757A | Y829A | Y837A)
[4] = target: E-cadherin CTD site-2, 3 to A (mouse, UniProt P09803 734-884, Y829A | Y837A | Y861A | Y863A | W867A)
[5] = target: E-cadherin CTD site-1 to A (mouse, UniProt P09803 734-884, Y755A | Y756A | Y757A)
[6] = target: E-cadherin CTD site-2 to A (mouse, UniProt P09803 734-884, Y829A | Y837A)

Kd [1]: 4.2 µM | Kd [2]: 4.9 µM | Kd [3]: 6.3 µM | Kd [4]: 3.3 µM | Kd [5]: 2 µM | Kd [6]: 2.9 µM
B1: Ankyrin-G 24 ANK repeats (residues 38-855) (domain or fragment)
chain: KSDANASYLRAARAGHLEKALDYIKNGVDVNICNQNGLNALHLASKEGHVEVVSELLQREANVDAATKKGNTALHIASLAGQAEVVKVLVTNGANVNAQSQNGFTPLYMAAQENHLEVVRFLLDNGASQSLATEDGFTPLAVALQQGHDQVVSLLLENDTKGKVRLPALHIAARKDDTKAAALLLQNDTNADIESKMVVNRATESGFTPLHIAAHYGNINVATLLLNRAAAVDFTARNDITPLHVASKRGNANMVKLLLDRGAKIDAKTRDGLTPLHCGARSGHEQVVEMLLDRAAPILSKTKNGLSPLHMATQGDHLNCVQLLLQHNVPVDDVTNDYLTALHVAAHCGHYKVAKVLLDKKANPNAKALNGFTPLHIACKKNRIRVMELLLKHGASIQAVTESGLTPIHVAAFMGHVNIVSQLMHHGASPNTTNVRGETALHMAARSGQAEVVRYLVQDGAQVEAKAKDDQTPLHISARLGKADIVQQLLQQGASPNAATTSGYTPLHLSAREGHEDVAAFLLDHGASLSITTKKGFTPLHVAAKYGKLEVASLLLQKSASPDAAGKSGLTPLHVAAHYDNQKVALLLLDQGASPHAAAKNGYTPLHIAAKKNQMDIATSLLEYGADANAVTRQGIASVHLAAQEGHVDMVSLLLSRNANVNLSNKSGLTPLHLAAQEDRVNVAEVLVNQGAHVDAQTKMGYTPLHVGCHYGNIKIVNFLLQHSAKVNAKTKNGYTPLHQAAQQGHTHIINVLLQNNASPNELTVNGNTALAIARRLGYISVVDTLKVVTEEIMTTTTITEKHKMNVPETMNEVLDMS
